Source: patent US9114104B2, “Proteinase K inhibitors, methods and compositions therefor” (Life Technologies Corporation, priority 2008, dated 2015)
The star is where a group is joined. MeOSuc = COC(=O)CCC(=O)*; CH2Cl = ClC*

What was measured:
[1] = target: T1, proteinase K (Parengyodontium album, UniProt P06873); experiment: Indirect linked assay: proteinase K inhibition read out by reverse transcriptase real time PCR of Xeno RNA template (Cells-to-CT kit); assay type: biochemical
Text: The present example provides for inhibition of proteinase K in the context of preparing samples for nucleic acid detection. Said preparation of samples is described by pending U.S. patent application Ser. No. 12/122,274 filed May 16, 2008 entitled “Sample Preparation for In Situ Nucleic Acid Analysis, Methods and Compositions Therefor,” hereby incorporated by reference in its entirety. Embodiments of said patent application provide a process for preparing a sample containing RNA for in situ analysis of RNA or a surrogate thereof. In some embodiments, the process comprises contacting the sample containing RNA with a lysis mixture comprising a polypeptide having protease activity under conditions and for a time to produce a lysate, and admixing at least a portion of the lysate with a stop mixture that comprises an inhibitor of the polypeptide having protease activity at substantially the same temperature as the contacting step to form a stopped mixture. The resultant stopped mixture is preferably compatible with in situ reverse transcriptase and DNA polymerase reactions.
Methoxysuccinyl tetrapeptide chloromethylketone compounds synthesized as set forth in Example 1 herein were analyzed for inhibitory activity of proteinase K in such stopped mixtures as described below. Functional validation for the nucleic acid detection system using inhibitors of embodiments herein was carried out by measuring mRNA levels in biological samples using the TaqMan® Gene Expression Cells-to-CT™ Kit and the TaqMan® Cells-to-CT™ Control Kit (Applied Biosystems, Foster City, Calif.). MicroAmp® optical 96-well reaction plates were purchased from Applied Biosystems. Disposable reagent reservoirs were purchased from VistaLab Technologies, Inc (Mt. Kisco, N.Y.). Reverse transcription (RT) reactions were performed at 37° C. for 60 min, 95° C. for 5 min, and cooled to 4° C. by using GeneAmp® PCR systems 9700 (Applied Biosystems). Real time PCR was performed by using 7500 Fast Real-Time PCR System. (Applied Biosystems).
The present indirect linked assay measures the amount of inhibition of proteinase K activity by assaying reverse transcriptase real time PCR amplification of a template, which amplification is dependent upon reverse transcriptase activity.
Stop solutions (100 μl) contained the following reagents (10× concentration):
Test inhibitor, 11 mM (final concentration when diluted into stopped mixture is 1 mM). Test inhibitor was also used at concentrations such that, when diluted with a lysis mixture to form a stopped mixture as described below, the final concentration of inhibitor in the stopped mixture was 0.75 mM, 0.5 mM, 0.25 mM, 0.10 mM, 0.05 mM and 0 mM (control).
Proteinase K lysis solution (50 μL (no added DNase)) from the TaqMan® gene expression Cells-to-CT™ kit (Applied Biosystems) was aliquoted into 18 tubes. To the test samples (these are a working equivalent to lysis mixtures in the Cells-to-CT™ workflow), stop solution (5 μL) was added; the tubes were mixed and held for 2 min at room temperature. For the control reactions, 50 μl of proteinase K buffer was mixed with 5 μl of stop mix without inhibitor and the resulting reaction mixture was heated at 95° C. for 10 min to thermally inactivate the proteinase K reaction. Next, reverse transcription reagents were prepared, i.e. 15 μL 2×RT buffer, and 1.5 μL of 20×RT enzyme mix, were aliquoted and mixed in the wells of a 96 well plate. To this RT solution, 13.5 μL of each proteinase K containing stopped mixture was added and the solution was mixed well. The resulting mixtures were incubated at room temperature for 1 hr for residual proteinase K activity to degrade the RT enzyme. After 1 hr incubation at room temperature, 1 μL of Xeno™ RNA Control template (Applied Biosystems P/N 4386995 diluted to 25,000 copies/μL in 10 ng/μL poly A) was added to all wells except for the no template control wells. […]

[2] = target: T1, proteinase K; conditions: 100 μg/ml proteinase K; cited from earlier work
[3] = target: T1, proteinase K; experiment: Detection of β-actin RNA in HeLa cell lysates after stop solution (in vitro validation); assay type: biochemical; conditions: FIG. 6; ~10,000 HeLa cells lysed, β-actin RT-PCR
Method: HeLa cells (˜10,000 cells) were lysed in 50 μl lysis solution for 5 minutes at room temperature. Stop solution (5 μl) was then added; the lysate-stop solution was mixed, and incubated for 2 minutes at room temperature. A volume of 10 μl of stopped lysate was added to a 50 μl RT reaction followed by addition of 4 μl of RT reaction into a 20 μl PCR reaction using the β-actin primers/probe of the TaqMan® Gene Expression Cells-to-CT™ Kit (Applied Biosystems).

T1 sequence (P06873 106-384): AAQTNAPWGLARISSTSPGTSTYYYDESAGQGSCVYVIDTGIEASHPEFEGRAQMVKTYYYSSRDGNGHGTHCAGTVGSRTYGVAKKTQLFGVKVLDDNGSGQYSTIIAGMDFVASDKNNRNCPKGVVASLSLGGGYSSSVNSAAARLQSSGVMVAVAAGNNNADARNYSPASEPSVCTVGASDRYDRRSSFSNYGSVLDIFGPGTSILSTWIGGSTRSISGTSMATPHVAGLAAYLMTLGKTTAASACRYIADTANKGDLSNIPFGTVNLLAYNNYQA

With “methoxysuccinyl-AlaAlaProVal-chloromethyl ketone (MeOSuc-AAPV-CH2Cl) [reference compound]” the “lowest concentration in the stopped mixture with inhibitory activity for proteinase K” value ([1]; Example 2, FIG. 1, tested 1 mM to 0.05 mM in stopped mixture) was “about 0.25 mM”, the “lowest concentration in the stopped mixture inhibitory for proteinase K activity” value ([1]; Example 6, FIG. 5, tested 1 mM to 0.05 mM) was “about 0.25 mM” and the “concentration at which inhibitor begins to lose efficacy” value ([1]; FIG. 1) was “greater than 0.25 mM”. The “average Ct (cycle threshold)” value ([1]; FIG. 1, 0.1 mM inhibitor) was 40, the “average Ct (cycle threshold)” value ([1]; FIG. 1, 0.25 mM inhibitor) was “about 33” and the “average Ct (cycle threshold)” value ([1]; FIG. 1, 0.5 mM inhibitor, Ct ~40 = active proteinase K, ~30 = inhibited) was “about 30”. For the same substance, the “average Ct (cycle threshold)” value ([1]; FIG. 5, 0.1 mM inhibitor) was “about 40”, the “average Ct (cycle threshold)” value ([1]; FIG. 5, 0.25 mM inhibitor) was “about 29” and the “lowest concentration with inhibitory activity for proteinase K” value [2] was 0.25 mM. The “concentration providing effective inhibition of proteinase K” value [3] was 0.5 mM.
